According to patent US20210332142A1 (Genentech, published 2021):

Key:
[1] = target: T1, recombinant human Tie2 extracellular domain (human, UniProt Q02763 23-748); assay: SPR, IgG captured, 37C
T1 construct: whole entry named; also called Recombinant human Tie2 ECD; hu Tie2
Procedure: (§1) A human antibody capture chip was prepared using a Series S CM5 chip (GE Life Sciences), a human antibody capture kit (GE Life Sciences) and an amine coupling kit (GE Life Sciences). Antibodies diluted to 5 μg/ml in running buffer (10 mM HEPES, 150 mM NaCl, 0.05% Tween 20, 1 mM EDTA, pH 7.4) were non-covalently captured using a contact time of 20 seconds and a flow rate of 10 μl/minute. Binding to 300 nM and 1500 nM recombinant Tie2 was analyzed at 37° C. using a Single Cycle Kinetics method with a contact time of 60 seconds, a dissociation time of 120 seconds and a flow rate of 50 μl/min. Between cycles, the surface was regenerated by a 30 second injection of 3M MgCl₂ at a flow rate of 30 μl/min. Values for antibody capture levels and analyte binding levels were obtained from the Report Point Table (Biacore Evaluation Software v3.0, GE Life Sciences). […] Table 16: Experiment A; Table 17: Experiment B.

[2] = target: T2, recombinant cyno Tie2 extracellular domain (cynomolgus monkey, UniProt Q02763 23-748 (human entry)); assay: SPR, IgG captured, 37C
T2 construct: also called Recombinant cyno Tie2 ECD; cy Tie2
T2 chain: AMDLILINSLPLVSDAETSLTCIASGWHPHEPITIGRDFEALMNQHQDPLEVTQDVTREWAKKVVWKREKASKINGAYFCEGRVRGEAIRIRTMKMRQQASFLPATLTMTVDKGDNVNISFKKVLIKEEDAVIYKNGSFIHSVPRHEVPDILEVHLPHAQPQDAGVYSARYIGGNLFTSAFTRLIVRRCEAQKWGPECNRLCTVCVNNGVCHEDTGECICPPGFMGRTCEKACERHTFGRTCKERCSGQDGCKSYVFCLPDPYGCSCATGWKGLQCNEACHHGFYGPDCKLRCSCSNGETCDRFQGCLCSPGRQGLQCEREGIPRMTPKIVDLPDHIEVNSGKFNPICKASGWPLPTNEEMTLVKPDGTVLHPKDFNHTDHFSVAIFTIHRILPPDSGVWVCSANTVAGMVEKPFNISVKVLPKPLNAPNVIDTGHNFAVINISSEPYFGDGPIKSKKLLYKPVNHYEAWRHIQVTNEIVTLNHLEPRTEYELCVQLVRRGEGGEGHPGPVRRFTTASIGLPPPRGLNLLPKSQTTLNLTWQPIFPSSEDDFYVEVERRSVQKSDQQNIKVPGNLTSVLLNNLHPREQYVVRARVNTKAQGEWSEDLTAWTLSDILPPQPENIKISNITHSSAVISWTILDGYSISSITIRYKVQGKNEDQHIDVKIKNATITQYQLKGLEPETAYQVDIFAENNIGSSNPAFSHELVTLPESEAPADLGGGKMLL
Procedure: as §1

T1 sequence (Q02763 23-748 limits assumed): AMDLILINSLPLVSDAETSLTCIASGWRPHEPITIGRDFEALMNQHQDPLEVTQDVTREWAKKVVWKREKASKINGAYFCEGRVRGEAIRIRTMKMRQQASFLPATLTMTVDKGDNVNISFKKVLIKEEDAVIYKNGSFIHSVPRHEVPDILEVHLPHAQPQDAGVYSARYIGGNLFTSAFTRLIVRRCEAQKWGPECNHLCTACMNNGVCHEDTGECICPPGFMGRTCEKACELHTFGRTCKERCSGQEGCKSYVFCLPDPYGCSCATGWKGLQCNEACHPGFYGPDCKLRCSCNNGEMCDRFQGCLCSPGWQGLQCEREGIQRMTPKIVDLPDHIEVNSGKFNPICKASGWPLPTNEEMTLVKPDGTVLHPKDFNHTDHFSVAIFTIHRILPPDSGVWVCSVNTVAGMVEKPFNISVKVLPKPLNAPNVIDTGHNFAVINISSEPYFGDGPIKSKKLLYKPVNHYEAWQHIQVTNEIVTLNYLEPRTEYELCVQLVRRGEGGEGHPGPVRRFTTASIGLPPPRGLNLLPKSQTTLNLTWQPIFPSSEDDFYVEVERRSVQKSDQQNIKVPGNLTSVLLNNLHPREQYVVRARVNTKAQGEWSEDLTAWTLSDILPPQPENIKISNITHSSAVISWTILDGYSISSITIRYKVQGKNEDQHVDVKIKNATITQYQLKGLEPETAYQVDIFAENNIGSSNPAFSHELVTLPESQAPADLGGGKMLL

B1: Tie2.1.M100cA (antibody, IgG1, name in Kabat numbering, V domains shown)
VH: EVQLVESGGGLVQPGGSLRLSCAASGFTFSNTDISWVRQAPGKGLEWVGRISPSDGNTYYADSVKGRFTISADTSKNTAYLQMNSLRAEDTAVYYCARRTRWASWAADYWGQGTLVTVSS
VL: DIQMTQSPSSLSASVGDRVTITCRASQDVSTAVAWYQQKPGKAPKLLIYSASFLYSGVPSRFSGSGSGTDFTLTISSLQPEDFATYYCQQSYTTPPTFGQGTKVEIKR
notes: hIgG1
B1 was tested, and the “Normalized Binding Signal, 300 nM” value [1] was 0.03, the “Normalized Binding Signal, 1500 nM” value [1] was 0.14 and the “Normalized Binding Signal, 300 nM” value [2] was 0.03. The “Normalized Binding Signal, 1500 nM” value [2] was 0.13.

B2: Tie2.1.M100cG (antibody, IgG1, name in Kabat numbering, V domains shown)
VH: EVQLVESGGGLVQPGGSLRLSCAASGFTFSNTDISWVRQAPGKGLEWVGRISPSDGNTYYADSVKGRFTISADTSKNTAYLQMNSLRAEDTAVYYCARRTRWASWAGDYWGQGTLVTVSS
VL: DIQMTQSPSSLSASVGDRVTITCRASQDVSTAVAWYQQKPGKAPKLLIYSASFLYSGVPSRFSGSGSGTDFTLTISSLQPEDFATYYCQQSYTTPPTFGQGTKVEIKR
notes: hIgG1
With B2 the “Normalized Binding Signal, 300 nM” value [1] was 0.06, the “Normalized Binding Signal, 1500 nM” value [1] was 0.21 and the “Normalized Binding Signal, 300 nM” value [2] was 0.05. For the same binder, the “Normalized Binding Signal, 1500 nM” value [2] was 0.2.

B3: Tie2.1.M100cP (antibody, IgG1, name in Kabat numbering, V domains shown)
VH: EVQLVESGGGLVQPGGSLRLSCAASGFTFSNTDISWVRQAPGKGLEWVGRISPSDGNTYYADSVKGRFTISADTSKNTAYLQMNSLRAEDTAVYYCARRTRWASWAPDYWGQGTLVTVSS
VL: DIQMTQSPSSLSASVGDRVTITCRASQDVSTAVAWYQQKPGKAPKLLIYSASFLYSGVPSRFSGSGSGTDFTLTISSLQPEDFATYYCQQSYTTPPTFGQGTKVEIKR
notes: hIgG1
In the case of B3, the “Normalized Binding Signal, 300 nM” value [1] is reported as 0.02, the “Normalized Binding Signal, 1500 nM” value [1] is reported as 0.11 and the “Normalized Binding Signal, 300 nM” value [2] is reported as 0.02. The “Normalized Binding Signal, 1500 nM” value [2] was 0.1.

B4: Tie2.1.M100cH (antibody, IgG1, name in Kabat numbering, V domains shown)
VH: EVQLVESGGGLVQPGGSLRLSCAASGFTFSNTDISWVRQAPGKGLEWVGRISPSDGNTYYADSVKGRFTISADTSKNTAYLQMNSLRAEDTAVYYCARRTRWASWAHDYWGQGTLVTVSS
VL: DIQMTQSPSSLSASVGDRVTITCRASQDVSTAVAWYQQKPGKAPKLLIYSASFLYSGVPSRFSGSGSGTDFTLTISSLQPEDFATYYCQQSYTTPPTFGQGTKVEIKR
notes: hIgG1
B4 was tested, and the “Normalized Binding Signal, 300 nM” value [1] was 0.11, the “Normalized Binding Signal, 1500 nM” value [1] was 0.39 and the “Normalized Binding Signal, 300 nM” value [2] was 0.1. The “Normalized Binding Signal, 1500 nM” value [2] was 0.36.

B5: Tie2.1.M100cK (antibody, IgG1, name in Kabat numbering, V domains shown)
VH: EVQLVESGGGLVQPGGSLRLSCAASGFTFSNTDISWVRQAPGKGLEWVGRISPSDGNTYYADSVKGRFTISADTSKNTAYLQMNSLRAEDTAVYYCARRTRWASWAKDYWGQGTLVTVSS
VL: DIQMTQSPSSLSASVGDRVTITCRASQDVSTAVAWYQQKPGKAPKLLIYSASFLYSGVPSRFSGSGSGTDFTLTISSLQPEDFATYYCQQSYTTPPTFGQGTKVEIKR
notes: hIgG1
With B5 the “Normalized Binding Signal, 300 nM” value [1] was 0.13, the “Normalized Binding Signal, 1500 nM” value [1] was 0.41 and the “Normalized Binding Signal, 300 nM” value [2] was 0.11. For the same binder, the “Normalized Binding Signal, 1500 nM” value [2] was 0.39.

B6: Tie2.1.M100cN (antibody, IgG1, name in Kabat numbering, V domains shown)
VH: EVQLVESGGGLVQPGGSLRLSCAASGFTFSNTDISWVRQAPGKGLEWVGRISPSDGNTYYADSVKGRFTISADTSKNTAYLQMNSLRAEDTAVYYCARRTRWASWANDYWGQGTLVTVSS
VL: DIQMTQSPSSLSASVGDRVTITCRASQDVSTAVAWYQQKPGKAPKLLIYSASFLYSGVPSRFSGSGSGTDFTLTISSLQPEDFATYYCQQSYTTPPTFGQGTKVEIKR
notes: hIgG1
With B6 the “Normalized Binding Signal, 300 nM” value [1] was 0.11, the “Normalized Binding Signal, 1500 nM” value [1] was 0.38 and the “Normalized Binding Signal, 300 nM” value [2] was 0.1. The “Normalized Binding Signal, 1500 nM” value [2] was 0.36.

B7: Tie2.1.M100cC (antibody, IgG1, name in Kabat numbering, V domains shown)
VH: EVQLVESGGGLVQPGGSLRLSCAASGFTFSNTDISWVRQAPGKGLEWVGRISPSDGNTYYADSVKGRFTISADTSKNTAYLQMNSLRAEDTAVYYCARRTRWASWACDYWGQGTLVTVSS
VL: DIQMTQSPSSLSASVGDRVTITCRASQDVSTAVAWYQQKPGKAPKLLIYSASFLYSGVPSRFSGSGSGTDFTLTISSLQPEDFATYYCQQSYTTPPTFGQGTKVEIKR
notes: hIgG1
With B7 the “Normalized Binding Signal, 300 nM” value [1] was 0.11, the “Normalized Binding Signal, 1500 nM” value [1] was 0.37 and the “Normalized Binding Signal, 300 nM” value [2] was 0.1. For the same binder, the “Normalized Binding Signal, 1500 nM” value [2] was 0.35.
